Measurements from patent US20160168234A1 (published 2016).
Ends that are not written are not given here.

Legend:
Assay in all cases: ELISA on biotinylated peptides of the alanine library on streptavidin plates
[1] = target: T1, peptide A19 of the second library (Aβ12-20 with aa 19 changed to alanine) (also: biotinylated, position not given here)
T1 peptide: VHHQKLVAF
From the text: (§1) One library comprised a total of 33 biotinylated peptides covering the complete amino acid (aa) sequence of Aβ1-42 (produced by Mimotopes and purchased from ANAWA Trading SA), the second library contains biotinylated peptides using peptide 12 (aa12-20 of Aβ) from the first peptide library and substituting each as in the sequence by an alanine (see table 3 below), and the third library contains biotinylated peptides 13, 14, or 15 (aa 13-21, 14-22 or 15-23 of Aβ) and substituting in each case the last amino acids to an alanine or to a glycine for as 21 which is already an alanine (see table 4 below). A biotinylated complete Aβ1-42 peptide was used as positive control (Bachem). Epitope mapping was done according to the manufacturer's (Mimotopes) instructions. Briefly, Streptavidin coated plates (NUNC) were blocked with 0.1% BSA in PBS overnight at 4° C. After washing with PBS-0.05% Tween 20, plates were coated for 1 hour at RT with the different peptides from the library, diluted in 0.1% BSA, 0.1% Sodium Azide in PBS to a final concentration of 10 μM. […] Plates were washed again and incubated with alkaline phosphatase conjugated goat anti human IgG for 1 h at RT. After final washing, plates were incubated with phosphatase substrate (pNPP) and read at 405 nm using an ELISA plate reader.

[2] = target: T2, peptide A16 of the second library (Aβ12-20 with aa 16 changed to alanine) (also: biotinylated, position not given here)
T2 peptide: VHHQALVFF
From the text: as §1

[3] = target: T3, peptide A20 of the second library (Aβ12-20 with aa 20 changed to alanine) (also: biotinylated, position not given here)
T3 peptide: VHHQKLVFA
From the text: as §1

[4] = target: T4, peptide A17 of the second library (Aβ12-20 with aa 17 changed to alanine) (also: biotinylated, position not given here)
T4 peptide: VHHQKAVFF
From the text: as §1

Measured: binding result

B1: humanized anti-human amyloid beta monoclonal antibody hC2 (antibody, human IgG4 S228P, kappa)
heavy: not shown
light: DIVMTQSPLSLPVTPGEPASISCRSSQSLVYSNGDTYLHWYLQKPGQSPQLLIYKVSNRFSGVPDRFSGSGSGTDFTLKISRVEAEDVGVYYCSQSTHVPWTFGQGTKVEIKRTVAAPSVFIFPPSDEQLKSGTASVVCLLNNFYPREAKVQWKVDNALQSGNSQESVTEQDSKDSTYSLSSTLTLSKADYEKHKVYACEVTHQGLSSPVTKSFNRGEC
notes: also called humanized antibody C2; humanized C2
no binding (tested: 200 ng/ml): [1] | [2] | [3] | [4]
